# Article PMC10696883, “Discovery of a non-canonical GRHL1 binding site using deep convolutional and recurrent neural networks”
# T1: GRHL1 DNA-binding domain (UniProt Q9NZI5 248-485)
# T1 sequence: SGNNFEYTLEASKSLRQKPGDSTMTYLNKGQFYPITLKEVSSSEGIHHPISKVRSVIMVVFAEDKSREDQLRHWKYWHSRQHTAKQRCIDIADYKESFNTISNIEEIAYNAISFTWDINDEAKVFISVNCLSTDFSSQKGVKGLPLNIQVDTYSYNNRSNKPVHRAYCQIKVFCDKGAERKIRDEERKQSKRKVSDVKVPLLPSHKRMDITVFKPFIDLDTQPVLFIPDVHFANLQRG
# Biological target: T1, GRHL1 DNA-binding domain
# Assay: ITC; ITC: 20 mM HEPES-NaOH pH 7.2, 125 mM NaCl, 2 mM DTT; ~10 µM dsDNA in cell, GRHL1 165 or 200 µM (Methods: 156 or 200 µM) in syringe; triplicates; temperature not stated
# Details: protein: recombinant; tags: His6 tag removed by TEV; chain copies: 2; blunt
Binder,binding result,Kd
Neg_Ctrl (dsDNA) DNA 1: GCAAAAAGGAGTCATTGGTG DNA 2: CACCAATGACTCCTTTTTGC,no binding,
Pos_Ctrl_V3 (dsDNA) DNA 1: GGGCAAAACCGTTTTTGCGG DNA 2: CCGCAAAAACGGTTTTGCCC,,4350 ± 5400 nM
Novel (dsDNA) DNA 1: AGGTTTTTCCACTTTGGGGC DNA 2: GCCCCAAAGTGGAAAAACCT,,180 ± 80 nM
Novel_V1 (dsDNA) DNA 1: AGGTTTTTCCAATTTGGGGC DNA 2: GCCCCAAATTGGAAAAACCT,no binding,
Pos_Ctrl_V2 (dsDNA) DNA 1: GGGCAAAACCGCTTTTGCGG DNA 2: CCGCAAAAGCGGTTTTGCCC,,1540 ± 300 nM
Pos_Ctrl (dsDNA) DNA 1: GGGCAAAACCGGTTTTGCGG DNA 2: CCGCAAAACCGGTTTTGCCC,,110 ± 30 nM
Novel_V3 (dsDNA) DNA 1: AGGTTTTTCCATTTTGGGGC DNA 2: GCCCCAAAATGGAAAAACCT,no binding,
Pos_Ctrl_V1 (dsDNA) DNA 1: GGGCAAAACCGATTTTGCGG DNA 2: CCGCAAAATCGGTTTTGCCC,,3400 ± 2200 nM
Novel_V2 (dsDNA) DNA 1: AGGTTTTTCCAGTTTGGGGC DNA 2: GCCCCAAACTGGAAAAACCT,,210 ± 60 nM
